Where only a bound is given, the exact number is not on record here.

Test [1] addresses Candida albicans ATP-binding cassette transporter CaCdr1p (Candida albicans) (UniProt Q5ANA3).
The target is the same in test [2]. This is another data set of the same source.

Sequence of Candida albicans ATP-binding cassette transporter CaCdr1p (Candida albicans) (Q5ANA3 whole entry): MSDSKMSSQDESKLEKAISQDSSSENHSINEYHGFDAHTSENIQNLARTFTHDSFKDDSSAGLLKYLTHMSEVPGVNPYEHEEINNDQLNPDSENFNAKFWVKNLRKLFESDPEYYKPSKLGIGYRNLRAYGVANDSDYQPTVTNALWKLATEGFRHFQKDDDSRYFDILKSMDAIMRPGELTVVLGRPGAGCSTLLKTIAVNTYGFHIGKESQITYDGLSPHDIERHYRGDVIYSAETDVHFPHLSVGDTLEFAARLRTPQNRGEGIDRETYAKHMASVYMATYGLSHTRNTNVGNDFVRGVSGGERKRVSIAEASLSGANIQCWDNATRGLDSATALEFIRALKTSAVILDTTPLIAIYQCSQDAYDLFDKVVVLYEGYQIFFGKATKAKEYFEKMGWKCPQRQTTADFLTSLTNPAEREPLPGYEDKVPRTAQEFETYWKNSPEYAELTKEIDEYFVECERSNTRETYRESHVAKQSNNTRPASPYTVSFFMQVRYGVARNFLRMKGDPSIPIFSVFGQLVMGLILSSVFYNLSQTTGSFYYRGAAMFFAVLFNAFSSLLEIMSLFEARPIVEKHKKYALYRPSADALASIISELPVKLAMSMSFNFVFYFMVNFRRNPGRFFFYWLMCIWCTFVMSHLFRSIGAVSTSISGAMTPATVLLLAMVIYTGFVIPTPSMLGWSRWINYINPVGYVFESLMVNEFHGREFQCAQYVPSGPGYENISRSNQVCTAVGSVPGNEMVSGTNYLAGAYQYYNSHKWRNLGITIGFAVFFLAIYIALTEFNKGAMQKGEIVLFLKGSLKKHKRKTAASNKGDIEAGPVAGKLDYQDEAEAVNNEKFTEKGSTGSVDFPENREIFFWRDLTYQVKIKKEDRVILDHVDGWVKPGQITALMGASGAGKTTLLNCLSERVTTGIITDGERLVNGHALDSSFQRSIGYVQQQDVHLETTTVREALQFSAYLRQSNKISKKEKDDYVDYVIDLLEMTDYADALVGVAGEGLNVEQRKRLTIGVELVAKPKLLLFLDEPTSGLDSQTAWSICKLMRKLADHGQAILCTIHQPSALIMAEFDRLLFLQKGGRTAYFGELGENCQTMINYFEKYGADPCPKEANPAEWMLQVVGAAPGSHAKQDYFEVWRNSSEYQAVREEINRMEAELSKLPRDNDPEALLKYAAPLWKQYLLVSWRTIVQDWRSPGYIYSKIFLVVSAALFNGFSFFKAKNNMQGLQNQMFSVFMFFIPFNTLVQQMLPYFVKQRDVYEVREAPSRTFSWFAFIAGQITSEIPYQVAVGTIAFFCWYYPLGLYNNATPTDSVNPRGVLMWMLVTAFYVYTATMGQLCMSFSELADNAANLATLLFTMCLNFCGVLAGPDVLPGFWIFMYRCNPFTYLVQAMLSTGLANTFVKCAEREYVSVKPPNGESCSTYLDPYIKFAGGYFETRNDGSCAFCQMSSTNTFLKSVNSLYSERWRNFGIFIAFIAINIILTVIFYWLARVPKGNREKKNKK

“RC1, naked D-octapeptide D-NH2-FFKWQRRR-CONH2”: the IC50 of inhibition of the ATPase activity of CaCdr1p in test [1] is above 200000 nM. “RC21v3, D-NH2-FFKWQR(Mtr)RR-CONH2 (peptide)”: the IC50 of inhibition of the CaCdr1p ATPase activity, plasma membrane preparations in test [2] is 1100 nM.

For the origin of these results see paper PMC3418399.
